Data published in paper PMC9154124.

Biological target: chimeric H5 Env: Env_(HXB2) with the V3 loop of Env_(SF162) (HIV-1 strain HXB2 | HIV-1 strain SF162) (UniProt P04578)

In the case of “Human soluble CD4-183 (sCD4-183) two-domain protein (domain or fragment)”, the inhibition by sCD4 of the infectivity of HIV-1 pseudotyped with Env (titration, Fig 3A); loss of potency against H4 Env is reported as greater than 50 fold and the sCD4-induced gp120 shedding from Env-expressing HEK293T cells (Fig 3B); shift of the sCD4 dependence against H4 Env is reported as greater than 10 fold.
